Data published in patent US20250027068.

Target: pooled human IgG (human IgG1, 2, 3 and 4)

Row | Protein | Enzyme Activity Endpoint Assay (purified): Fab′2 [ng/µL] | Enzyme Activity Endpoint Assay (purified): Fc [ng/µL] | Enzyme Activity Endpoint Assay (purified): IgG [ng/µL] | Enzyme Activity Endpoint Assay (purified): scIgG [ng/µL]
1 | PRT-623 (protein) MQITTVWTKGVTPLTPEQFRYNNEDVIHAPYLAHQGWYDITKAFDGKDNLLCGAATAGNMLHWWFDQNKTEIEAYLSKHPEKQKIIFNNQELFDLKAAIDTKDSQTNSQLFNYFRDKAFPNLSARQLGVMPDLVLDMFINGYYLNVFKTQSTDVNRPYQDKDKRGGIFDAVFTRGDQTTLLTARHDLKNGTLNEISQIIKQELQSGRALALSHTYANVSISHVINLWGADFNAEGNLIAIYVTDSDANASIGMKKYFVGINAHGHVAISAKKIEGENIGAQVLGLFTLSSGKDIWQKLSLEHHHHHH | 433 | 260 | 0 | 157
2 | PRT-643 (protein) MQITSVWTKGVTPLTPEQFRYNNEDVIHAPYLAHQGWYDITKAFDGKDNLLCGAATAGNMLHWWFDQNKTEIEAYLSKHPEKQKIIFNNQELFDLKAAIDTKDSQTNSQLFNYFRDKAFPNLSARQLGVMPDLVLDMFINGYYLNVFKTQSTDVNRPYQDKDKRGGIFDAVFTRGDQTTLLTARHDLKNKGLNDISTIIKQELTEGRALALSHTYANVSISHVINLWGADFNAEGNLEAIYVTDSDANASIGMKKYKVGYNKDGRVAISAYKIEGENIGAQVLGLFTLSSGKDIWQKLSLEHHHHHH | 664 | 409 | 33 | 226
3 | PRT-624 (protein) MQITSVWTKGVTPLTPEQFRYNNEDVIHAPYLAHQGWYDITKAFDGKDNLLCGAATAGNMLHWWFDQNKTEIEAYLSKHPEKQKIIFNNQELFDLKAAIDTKDSQTNSQLFNYFRDKAFPNLSARQLGVMPDLVLDMFINGYYLNVFKTQSTDVNRDYDDKDKRGGIFDDVFGKGDQTTLLTARHDLKNKGLNDISTIIKQELTEGRALALSHTYANVSISHVINLWGADFNAEGNLEAIYVTDSDANASIGMKKYFVGINAHGHVAISAKKIEGENIGAQVLGLFTLSSGKDIWQKLSLEHHHHHH | 89 | 251 | 96 | 626
4 | PRT-658 (protein) MQITSVWTKGVTPLTPEQFRYNNEDVIHAPYLAHQGWYDITKAFDGKDNLLCGAATAGNMLHWWFDQNKTEIEAYLSKHPEKQKIIFNNQELFDLRKAINTKDSQTNSALFNYFRDKAFPNLSARQLGVMPDLVLDMFINGYYLNVFKTQSTDVNRPYQDKDKRGGIFDAVFTRGDQTTLLTARHDLKNKGLNDISTIIKQELTEGRALALSHTYANVSISHVINLWGADFNAEGNLEAIYVTDSDANASIGMKKYFVGINAHGHVAISAKKIEGENIGAQVLGLFTLSSGKDIWQKLSLEHHHHHH | 822 | 473 | 0 | 317
5 | PRT-661 (protein) MQITSVWTKGVTPLTPEQFRYNNEDVIHAPYLANQGWYDITKTFDGKDNLLCGAATAGNMLHWWFDQNKTEIEAYLSKHPEKQKIIFNNQELFDLKKAIDTKDSQTNSQLFNYFRDKAFPNLSARQLGVMPDLVLDMFINGYYLNVFKTQSTDVNRPYQDKDKRGGIFDAVFTRGDQTTLLTARHDLKNKGLNDISTIIKQELTEGRALALSHTYANVSISHVINLWGADFNAEGNLEAIYVTDSDSNASIGMKKYFVGINAAGHVAISAKKIEGENIGAQVLGLFTLSSGKDIWQKLSLEHHHHHH | 187 | 121 | 0 | 70
6 | PRT-646 (protein) MQITSVWTKGVTPLTPEQFRYNNEDVIHAPYLAHQGWYDITKAFDGKDNLLCGAATAGNMLHWWFDQNKTEIEAYLSKHPEKQKIIFNNQELFDLKAAIDTKDSQTNSQLFNYFRDKAFPNLSARQLGVMPDLVLDMFINGYYLNVFKTQSTDVNRPYQDKDKRGGIFDAVFTRGDQTTLLTETTDLYGKGLNDISTIIKQELTEGRALALSHTYANVSISHVINLWGADFNAEGNLEAIYVTDSDANASIGMKKYFVGINAHGHVAISAKKIEGENIGAQVLGLFTLSSGKDIWQKLSLEHHHHHH | 582 | 435 | 39 | 635
7 | PRT-692 (protein) MQITSVWTKGVTPPTPEQFRYNNEDVIHAPYLPNQGWYDITKTFNGGDNLLCGAATAGNMLHWWFDQNKTEIEAYLSKYPEKQKIIFNNQELFDLRAAINSKDSQTNSQLFNYFRDKAFPNLSARQLGVMPDLVLDMFINGYYLNVFKTQSTDVNRPYQDPDKRGGIFDDVFKEGDQTTLLTARHDLKNGTLNDISTLIKQELQSGKALALSHTYANVSISHVINLWGADFNAEGNLEAIYVTDSDANQSIGMKKYKVGVNAHGKVAISAKKIEGENIGAQVLGLFTLSSGKEIWQKLSLEHHHHHH | 442 | 44 | 429 | 38
8 | PRT-686 (protein) MQITSVWTKGVTPLTPEQFTYNNEDVIHAPYIANQGWYDITKTFNGKDNLLCGAATAGNMLHWWFDQNKTEIENYLKKHPEKQKIIFNNQELFDLRKAINTKDSQTNSALFNYFRDKAFPNLSARQLGVMPDLVLDMFINGYYLNVFKTQSTDVNRPYQTKDKRGGIFDHVFTRGDQSTLLTARHDLKNKTLNEISDIIKQELTEGKALALSHTYANVSISHVINLWGADFNAEGNLEAIYVTDSDANASIGMKKYFVGVNSHGKVAISAKKIEDENIGAQVLGLFTLSSGQDIWEQLSLEHHHHHH | 608 | 355 | 0 | 252
9 | PRT-609 (protein) MQITSVWTKGVTPLTPEQFRYNNEDVIHAPYLAHQGWYDITKAFDRGDNLLCGAATAGNMLHWWFDQNKTEIEAYLSKHPEKQKIIFNNQELFDLKAAIDTKDSQTNSQLFNYFRDKAFPNLSARQGGVMPDLVLDMFINGYYLNVFKTQSTDVNRPYQDKDKRGGIFDAVFTRGDQTTLLTARHDLKNKGLNDISTIIKQELTEGRALALSHTYANVSISHVINLWGADFNAEGNLEAIYVTDSDADEKIGMKKYFVGINAHGHVAISAKKIEGENIGAQVLGLFTLSSGKDIWQKLSLEHHHHHH | 460 | 216 | 702 | 726
10 | PRT-696 (protein) MTITSVWTKGVTPPTPEDFRYNNEDVLHAPYVPNQGWYDITKTFDGGDNLLCGAATAGNMLHWWFDQNKEEIERYLKKYPEKQKIIFNNQELFDVRAAINSKDSQTNSKLFNYFRDKAFPNLSARQLGVMPDLVLDMFINGYYLNLGKTQSTDVNRPYQDPDKRGGIFDDVFKEGDQTTLLTARHDLKNGGLNEISDLIKQELQSGKALALSHTYANVRINHVINLWGADFDAEGNLIAIYVTDSDANQSIGMKKYKVGVNANGKVAISAKKIEGDNIGAQVLGLFTLSTGQEIWQKLSLEHHHHHH | 58 | 0 | 1020 | 19
